The test system of assay [1] is recombinant RGS12 PDZ domain protein. The conditions noted are these: biotinylated peptide immobilized on streptavidin chip to 350 RU; 10 mM HEPES pH 7.4, 250 mM NaCl, 0.05% Nonidet P-40, 50 μM EDTA; analyte 300 μM (10 nM to 500 μM); mNotch1 surface subtracted.
Protocol: Optical detection of real-time protein–peptide interactions by surface plasmon resonance was performed using a Biacore 3000 (Cytiva; Marlborough, MA, USA), as per previously described methods [65, 105, 106]. Briefly, biotinylated peptides were separately immobilized on streptavidin-coated SPR chips (Cytiva) to 350 resonance units (RUs). All experiments were performed with the sensor surface, fluidics, and pump equilibrated with Biacore running buffer (10 mM HEPES pH 7.4, 250 mM NaCl, 0.05% (v/v) Nonidet P-40, and 50 μM EDTA). Increasing concentrations (10 nM to 500 μM) of recombinant RGS12 PDZ domain protein (expressed from E. coli culture and purified as previously described in ref. [65]) were separately injected at a flow rate of 10 μL/min with a 300 s dissociation phase. The surface was regenerated between each test concentration by the injection of a denaturing regeneration buffer (1 M NaCl, 50 mM NaOH). Non-specific binding to a biotinylated mNotch1 peptide-bound streptavidin surface was subtracted from each curve (BIA-evaluation Version 3.0 software, Cytiva). Maximal response units for each injection were plotted using GraphPad Prism 5.0.
In assay [2] the test system is isolated rat RGS12 PDZ domain (recombinant GST-fusion protein). Further details: method as in PMID 9651375, PMID 17380122, PMID 11771424. The note with it: C-terminal tail peptide; ref [19],[42],[65]; cited from earlier work.
In assay [3] the target is T1, R59Q-variant RGS12 PDZ domain GST-fusion protein (Homo sapiens, UniProt O14924, R59Q).
T1 construct: human RGS12 PDZ domain (aa 18–101 of UniProt O14924); purchased GenScript; host or cells: E. coli
T1 sequence (O14924 18-101 R59Q): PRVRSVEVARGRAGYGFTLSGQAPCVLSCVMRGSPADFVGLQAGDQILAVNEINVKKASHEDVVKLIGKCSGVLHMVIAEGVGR
As to the kind of experiment: SPR single-cycle kinetics (Alto), R59Q-variant PDZ domain. In kind it is binding. The conditions noted are these: R59Q vs wildtype; peptide biosensors; N = 2-4. On the procedure: Wildtype and R59Q-variant versions of the human RGS12 PDZ domain (aa 18–101 of UniProt O14924) were each cloned in frame with an N-terminal glutathione-S-transferase (GST) expression tag, expressed by E. coli fermentation, and purified by GST-affinity column and size-exclusion column chromatographies by GenScript. These recombinant GST-fusion proteins were stored at −80 °C in a storage buffer (150 mM NaCl, 10 mM Tris-HCl pH 7.6, 1 mM EDTA, 5 mM DTT, and 10% glycerol) prior to thawing and supplementation with 0.1% (final) Tween 20 for use in the SPR experiments.
Biotinylated peptides were separately immobilized onto streptavidin-coated gold nanosensor particles (Nicoya) in lane pairs. The reference sensor of the lane held either immobilized mNotch1 or rβ2AR peptide as an established negative control surface, and the test sensor held one of the candidate PDZ domain-interacting peptides. All on-board dilutions and experimental passages of analytes over immobilized peptides were performed with a running buffer consisting of phosphate-buffered saline (137 mM NaCl, 2.7 mM KCl, 4.3 mM disodium phosphate, 1.4 mM monopotassium phosphate; and pH 7.3, from Teknova) supplemented with 0.1% Tween 20 (Nicoya), […] (w/v) bovine serum albumin (BSA; Nicoya), and 3% glycerol (the latter to reduce bulk-shift readings when transitioning from running buffer to protein analyte injections). […] Each sensor was regenerated between each single-stack passage by the injection of a surface regeneration buffer (10 mM NaOH). Non-specific binding to the paired, negative control peptide-bound streptavidin surface was subtracted from each single-stack curve and then binding parameters of the on-rate (ka), off-rate (kd), and dissociation constant (KD) were calculated using the 1:1 Langmuir kinetics model with mass transport limitation (Alto software version 2.3.1; Nicoya). Observed maximal response units (Rmax) and calculated KD values for each single-stack injection were plotted using GraphPad Prism 10.

Assay [4] deals with wildtype RGS12 PDZ domain. The conditions noted are these: prior SPR assays; ref [19],[42],[65]; cited from earlier work. An excerpt:
Table 1 Heat map of GLIDE SP-peptide and GLIDE XP scores for predicted docking of four pentameric ligands into the ligand-binding “receptor grid” specified for each of the 20 low-energy structural models (“poses”) of the human RGS12 PDZ domain recorded within PDB id 2KV8. […] Each of the three C-tail ligands was synthesized as an N-terminally biotin-tagged polypeptide and used to create gold nanoparticle biosensors for measuring the binding of these recombinant GST-RGS12 PDZ domain fus ...
In general terms: Surface plasmon resonance follows binding to a sensor surface in real time, without labels.

In assay [5] the test system is HA-epitope tagged RGS12 full-length protein. As to the kind of experiment: Co-immunoprecipitation of RGS12 and SAPAP3 in HEK293T cells. The format is binding. On the procedure: Monolayer cultures of the immortalized human embryonic kidney cell line HEK293T (ATCC CRL-3216) were transfected at 75–90% confluence using FuGENE6 transfection reagent (Promega; Madison, WI, USA), according to the manufacturer’s instructions, with 0.5 μg of pcDNA3.1-Flag-SAPAP3 expression plasmid DNA and/or 0.5 μg of pcDNA3.1-HA-RGS12 expression plasmid DNA [103]. Forty-eight hours later, the transfected cells were lysed with ice-cold Triton-X lysis buffer (20 mM Tris-HCl pH 7.5, 150 mM NaCl, 1 mM EDTA, 1 mM EGTA, and 1% Triton X-100, supplemented with protease inhibitors). The lysates were clarified by centrifugation (16,000× g) and then incubated overnight at 4 °C with […] of HA- or Flag-epitope tag-specific antibody followed by precipitation with protein-A/G beads (Santa Cruz Biotechnology; Dallas, TX, USA). The beads were washed 3 times with ice-cold lysis buffer and the proteins were eluted in Laemmli buffer. The samples were resolved on 4–12% precast SDS-polyacrylamide gels (Novex/Invitrogen; ThermoFisher Scientific, Waltham, MA, USA), transferred to nitrocellulose, and immunoblotted with horseradish peroxidase (HRP)-conjugated primary antibodies to HA- or Flag-epitope tags and visualized by ECL chemiluminescence (GE Healthcare; Chicago, IL, USA).

Assay [6] has as its target T2, Wildtype human RGS12 PDZ domain GST-fusion protein (human, UniProt O14924 18-101).
T2 construct: human RGS12 PDZ domain, aa 18-101 of UniProt O14924; also called GST-RGS12 PDZ domain fusion protein; wildtype PDZ protein; not shown: GST, N-terminal, kept
T2 sequence (looked up): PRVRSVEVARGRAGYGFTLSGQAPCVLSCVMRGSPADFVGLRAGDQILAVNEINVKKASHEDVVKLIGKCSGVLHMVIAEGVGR
As to the kind of experiment: SPR; Alto 8 × 2 digital microfluidics SPR (Nicoya); biotinylated peptides immobilised on streptavidin-coated gold nanosensors; GST-RGS12 PDZ fusion protein as analyte, single-cycle kinetics, 111 nM-9 μM; PBS pH 7.3 with 0.1% Tween 20, BSA, 3% glycerol; mNotch1 or rβ2AR reference sensor subtracted; 1:1 Langmuir model with mass transport limitation; apparent rates, estimated KD. The conditions noted are these: both partners purified.

In assay [7] the target is T3, Wildtype human RGS12 PDZ domain GST-fusion protein (human, UniProt O14924 18-101).
T3 chain: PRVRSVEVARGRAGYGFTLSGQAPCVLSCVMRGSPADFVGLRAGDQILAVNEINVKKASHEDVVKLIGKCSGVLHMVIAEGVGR
As to the kind of experiment: SPR.

The target of assay [8] is T4, R59Q-variant human RGS12 PDZ domain GST-fusion protein (human, UniProt O14924 18-101, R59Q).
T4 sequence: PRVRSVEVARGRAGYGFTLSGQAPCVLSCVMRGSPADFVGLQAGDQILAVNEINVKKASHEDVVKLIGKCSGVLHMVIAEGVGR
As to the kind of experiment: SPR.

The target of assay [9] is T3, Wildtype human RGS12 PDZ domain …. As to the kind of experiment: SPR.
Assay [10] concerns the target T4, R59Q-variant human RGS12 PDZ domain …. As to the kind of experiment: SPR. The source holds these as a separate data set.

No end group written: not given here. *: point of attachment. Biotin = O=C1N[C@H]2[C@H](CS[C@H]2CCCCC(=O)*)N1; Ahx = NCCCCCC(=O)O

With biotin-NH-SATESADSIEIYIPEAQSRL-amide, in assay [1], the “SPR binding of recombinant RGS12 PDZ domain (in words)” value was “no appreciable binding”.

For the molecule “RTLRLKQPSTPTRTAV-OH [C-terminal tail of rat MEK2, 16-mer]”, the “SPR binding to rat RGS12 PDZ domain (in words)” value in assay [2] is “direct and selective binding”.

On to “biotin-Ahx-RTLRLKQPSTPTRTAV-carboxylic acid [TRTAV-COOH of MEK2]”, for which, in assay [3], the “KD of R59Q variant relative to wildtype (fold less than the wildtype)” value was “at least 2 fold” and the “maximal binding signal (Rmax), R59Q in comparison to wildtype” value is listed as “less maximal binding signal (Rmax)”.

Turning to “VGSSSANTSTTL-OH [C-terminal tail of rat CXCR2, 12-mer]”, in assay [2], the “SPR binding to rat RGS12 PDZ domain (in words)” value was “direct and selective binding”.

As to “biotin-Ahx-PSQITHIPEAFK-carboxylic acid [mouse Notch1]”, the “binding of negative control to RGS12 PDZ domain (in words)” value in assay [4] is listed as “no demonstrable affinity”.

As to “biotin-NH-SATESADSIEIYIPEAQTRL-carboxylic acid”, in [1], the “SPR binding of recombinant RGS12 PDZ domain (in words)” value is recorded as “bound specifically”.

Regarding “biotin-Ahx-QGRNCNTNDSPL-carboxylic acid [rat beta2-adrenergic receptor]”, in assay [4], the “binding of negative control to RGS12 PDZ domain (in words)” value is listed as “no demonstrable affinity”.

B1: Flag-epitope tagged SAPAP3: Flag-epitope tagged SAPAP3 full-length protein expressed in HEK293T cells (protein, UniProt O95886 1-979, looked up)
chain: MRGYHGDRGSHPRPARFADQQHMDVGPAARAPYLLGSREAFSTEPRFCAPRAGLGHISPEGPLSLSEGPSVGPEGGPAGAGVGGGSSTFPRMYPGQGPFDTCEDCVGHPQGKGAPRLPPTLLDQFEKQLPVQQDGFHTLPYQRGPAGAGPGPAPGTGTAPEPRSESPSRIRHLVHSVQKLFAKSHSLEAPGKRDYNGPKAEGRGGSGGDSYPGPGSGGPHTSHHHHHHHHHHHHQSRHGKRSKSKDRKGDGRHQAKSTGWWSSDDNLDSDSGFLAGGRPPGEPGGPFCLEGPDGSYRDLSFKGRSGGSEGRCLACTGMSMSLDGQSVKRSAWHTMMVSQGRDGYPGAGPGKGLLGPETKAKARTYHYLQVPQDDWGGYPTGGKDGEIPCRRMRSGSYIKAMGDEESGDSDGSPKTSPKAVARRFTTRRSSSVDQARINCCVPPRIHPRSSIPGYSRSLTTGQLSDELNQQLEAVCGSVFGELESQAVDALDLPGCFRMRSHSYLRAIQAGCSQDDDCLPLLATPAAVSGRPGSSFNFRKAPPPIPPGSQAPPRISITAQSSTDSAHESFTAAEGPARRCSSADGLDGPAMGARTLELAPVPPRASPKPPTLIIKTIPGREELRSLARQRKWRPSIGVQVETISDSDTENRSRREFHSIGVQVEEDKRRARFKRSNSVTAGVQADLELEGLAGLATVATEDKALQFGRSFQRHASEPQPGPRAPTYSVFRTVHTQGQWAYREGYPLPYEPPATDGSPGPAPAPTPGPGAGRRDSWIERGSRSLPDSGRASPCPRDGEWFIKMLRAEVEKLEHWCQQMEREAEDYELPEEILEKIRSAVGSTQLLLSQKVQQFFRLCQQSMDPTAFPVPTFQDLAGFWDLLQLSIEDVTLKFLELQQLKANSWKLLEPKEEKKVPPPIPKKPLRGRGVPVKERSLDSVDRQRQEARKRLLAAKRAASFRHSSATESADSIEIYIPEAQTRL
modifications: full-length Flag epitope tag
For the molecule B1, the co-immunoprecipitation entry in assay [5] (IP with anti-Flag antibody, Triton-X lysis buffer pH 7.5) is recorded as “co-immuno-precipitate”. Moreover, the reciprocal co-immunoprecipitation result in assay [5] (IP with anti-HA antibody) was “reciprocal co-immunoprecipitation”.

B2: CXCR2 C-terminal peptide, biotin-Ahx-VGSSSGHTSTTL-carboxylic acid (peptide)
peptide: {Biotin-Ahx}-VGSSSGHTSTTL-OH
SMILES: CC(C)C[C@H](NC(=O)[C@@H](NC(=O)[C@@H](NC(=O)[C@H](CO)NC(=O)[C@@H](NC(=O)[C@H](Cc1c[nH]cn1)NC(=O)CNC(=O)[C@H](CO)NC(=O)[C@H](CO)NC(=O)[C@H](CO)NC(=O)CNC(=O)[C@@H](NC(=O)CCCCCNC(=O)CCCC[C@@H]1SC[C@@H]2NC(=O)N[C@@H]21)C(C)C)[C@@H](C)O)[C@@H](C)O)[C@@H](C)O)C(=O)O
notes: C-terminus of CXCR2; also called CXCR2 C-tail peptide TSTTL-COOH; CXCR2 TSTTL-COOH biosensor; source: synthetic peptide (GenScript)
For orientation: Kd means the constant that tells how readily two partners part at equilibrium. The low end stands for a tighter complex, the high end for a looser complex. What is called koff is the rate constant with which the complex falls apart. Low values mean slow dissociation, high ones fast dissociation. Regarding B2, in assay [6], the binding result is “binds”. Besides, the results for the Kd in assay [7] and in assay [8] were 0.45 µM and 1.28 µM, respectively. Besides, the koff was 0.000542 s⁻¹ in [9] and 0.00193 s⁻¹ in assay [10].

B3: MEK2 C-terminal peptide, biotin-Ahx-RTLRLKQPSTPTRTAV-carboxylic acid (peptide)
peptide: {Biotin-Ahx}-RTLRLKQPSTPTRTAV-OH
SMILES: CC(C)C[C@H](NC(=O)[C@H](CCCNC(=N)N)NC(=O)[C@H](CC(C)C)NC(=O)[C@@H](NC(=O)[C@H](CCCNC(=N)N)NC(=O)CCCCCNC(=O)CCCC[C@@H]1SC[C@@H]2NC(=O)N[C@@H]21)[C@@H](C)O)C(=O)N[C@@H](CCCCN)C(=O)N[C@@H](CCC(N)=O)C(=O)N1CCC[C@H]1C(=O)N[C@@H](CO)C(=O)N[C@H](C(=O)N1CCC[C@H]1C(=O)N[C@H](C(=O)N[C@@H](CCCNC(=N)N)C(=O)N[C@H](C(=O)N[C@@H](C)C(=O)N[C@H](C(=O)O)C(C)C)[C@@H](C)O)[C@@H](C)O)[C@@H](C)O
notes: C-terminus of MEK2; also called MEK2 C-tail; TRTAV-COOH of MEK2; source: synthetic peptide (GenScript)
For the molecule B3, the binding result in assay [6] is “binds”.

B4: SAPAP3 C-terminal peptide, biotin-Ahx-IYIPEAQTRL-carboxylic acid (peptide)
peptide: {Biotin-Ahx}-IYIPEAQTRL-OH
SMILES: CC[C@H](C)[C@H](NC(=O)CCCCCNC(=O)CCCC[C@@H]1SC[C@@H]2NC(=O)N[C@@H]21)C(=O)N[C@@H](Cc1ccc(O)cc1)C(=O)N[C@H](C(=O)N1CCC[C@H]1C(=O)N[C@@H](CCC(=O)O)C(=O)N[C@@H](C)C(=O)N[C@@H](CCC(N)=O)C(=O)N[C@H](C(=O)N[C@@H](CCCNC(=N)N)C(=O)N[C@@H](CC(C)C)C(=O)O)[C@@H](C)O)[C@@H](C)CC
notes: C-terminus of SAPAP3; the last ten residues of the human 20-mer aa 960-979; also called SAPAP3 C-tail peptide AQTRL-COOH; source: synthetic peptide (GenScript)
For the molecule B4, the binding result in [6] was “binds”. In addition, the results for the Kd in [7] and in assay [8] were 0.26 µM and 0.6 µM, respectively. Besides, the koff in assay [9] is 0.000383 s⁻¹; in assay [10], 0.00923 s⁻¹.

The values above are taken from publication PMC11546610, “Molecular Modeling and In Vitro Functional Analysis of the RGS12 PDZ Domain Variant Associated with High-Penetrance Familial Bipolar Disorder” (International Journal of Molecular Sciences, 2024).
